US20220002700A1, “COMPUTATIONALLY-OPTIMIZED ACE2 PEPTIDES FOR COMPETITIVE INTERCEPTION OF SARS-CoV-2” (priority 2020, published 2022)

System: viruses pseudotyped with the SARS-CoV-2 S protein
Type: cell-based

B1: 23-mer (A2N)-CHIPΔTPR fusion (protein)
chain: QNKTFLDKFNHEAEDLFYQSSLAMRLNFGDDIPSALRIAKKKRWNSIEERRIHQESELHSYLSRLIAAERERELEECQRNHEGDEDDSHVRAQQACIEAKHDKYMADMDELFSQVDEKRKKRDIPDYLCGKISFELMREPCITPSGITYDRKDIEEHLQRVGHFDPVTRSPLTQEQLIPNLAMKEVIDAFISENGWVEDY
With B1 the “reduction of the infection rate of the pseudovirus” value was ~60%.
